Experiment [1] has as its target 重组产生的C末端截短的RSV(A2毒株)F蛋白 (RSV(A2毒株)) (UniProt P03420). The experiment is described as follows: SPR (BIAcore 3000); truncated F protein on CM5 chip at low density; off-rate at the instrument's detection limit, so an estimate.
The target is the same in experiment [2].

Results on one substance are retold here after patent CN101273061A.

Sequence of UniProt P03420 (P03420 26-524): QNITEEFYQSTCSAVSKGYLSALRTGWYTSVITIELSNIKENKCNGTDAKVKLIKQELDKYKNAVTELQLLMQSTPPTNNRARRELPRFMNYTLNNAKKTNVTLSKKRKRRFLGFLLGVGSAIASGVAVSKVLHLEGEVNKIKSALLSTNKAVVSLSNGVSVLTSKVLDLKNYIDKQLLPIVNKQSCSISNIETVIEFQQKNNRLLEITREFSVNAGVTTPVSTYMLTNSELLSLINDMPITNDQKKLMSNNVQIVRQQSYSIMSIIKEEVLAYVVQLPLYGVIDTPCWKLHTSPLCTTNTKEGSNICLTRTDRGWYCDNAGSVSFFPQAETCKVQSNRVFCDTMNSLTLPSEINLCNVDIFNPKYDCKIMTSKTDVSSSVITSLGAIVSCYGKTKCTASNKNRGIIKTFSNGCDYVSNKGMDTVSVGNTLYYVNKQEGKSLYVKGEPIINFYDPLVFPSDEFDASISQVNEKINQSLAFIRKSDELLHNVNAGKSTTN

With A4B4L1FR-S28R(莫维珠单抗) (antibody), in experiment [1], the fold lower dissociation rate (koff) than palivizumab is 17 fold. In experiment [2], this substance yielded a fold higher affinity than palivizumab of 70 fold and a fold higher association rate (kon) than palivizumab of 4 fold.
